± gives the standard deviation of the averaged measurements.

For this series, the system named is Saccharomyces cerevisiae. Kind of series: protein stability index of tFT-peptide fusion (C-terminal peptide) (PSI (0-1 scale)); higher = more stable (slower turnover). Particulars: temperature: 30 C. As for the experimental part: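 MPS profiling in S. cerevisiae of the yeast C-terminome library: the last 12 aa of each annotated ORF are fused to the C-terminus of a sfGFP-mCherry timer, after a GGGS linker. Cells are FACS-sorted into 8 mCherry/sfGFP bins and deep-sequenced. PSI runs from 0 (unstable) to 1 (stable); wild type and das1Δ backgrounds, two technical replicates each.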

[1] abbreviates: genetic background: das1 deletion.

Regarding RRDVQSRSSMAC [HFL1 C-terminal 12 aa], the protein stability index under setting [1] was determined as 0.702 ± 0.02 and the protein stability index (genetic background: wild type) turned out to be 0.652 ± 0.0097.

RREKRNKALKER [CGR1 C-terminal 12 aa]: the protein stability index was 0.7064 ± 0.0034 under setting [1] and 0.6945 ± 0.0019 (genetic background: wild type).

As to RRKLKGRWFLSH [MRX14 C-terminal 12 aa], the protein stability index under setting [1] came to 0.702 ± 0.0078 and the protein stability index (genetic background: wild type) was 0.562 ± 0.0085.

With “RRRLTYHRYHPK [YML009C-A C-terminal 12 aa]”, the protein stability index reads like this: under setting [1], 0.731 ± 0.014; (genetic background: wild type) 0.722 ± 0.012.

For RSASNRHVDYFL [PPG1 C-terminal 12 aa], the protein stability index was 0.6933 ± 0.0059 under setting [1] and 0.698 ± 0.033 (genetic background: wild type).

Turning to RSKLFNLSINNP [SPC72 C-terminal 12 aa], the protein stability index under setting [1] was 0.6997 ± 0.001 and the protein stability index (genetic background: wild type) came out at 0.6855 ± 0.0063.

Turning to RSRKNEGSYLMH [HMT1 C-terminal 12 aa], the protein stability index was 0.6967 ± 0.00082 under setting [1] and 0.693 ± 0.0082 (genetic background: wild type).

Regarding RSVYDYNGSLKV [CSR1 C-terminal 12 aa], the protein stability index amounted to 0.686 ± 0.012 under setting [1] and 0.691 ± 0.015 (genetic background: wild type).

In the case of RTKGQKWFDGLM [NAT2 C-terminal 12 aa], the protein stability index worked out at 0.6819 ± 0.0031 under setting [1] and 0.698 ± 0.016 (genetic background: wild type).

On to RTSPIDNVSNTH [NUT2 C-terminal 12 aa], for which the protein stability index reads like this: under setting [1], 0.693 ± 0.0018; (genetic background: wild type) 0.693 ± 0.046.

On to RYNDERLGPVQG [IRC24 C-terminal 12 aa], for which the protein stability index by setting is: under setting [1], 0.696 ± 0.021; (genetic background: wild type) 0.684 ± 0.043.

Turning to “SAGSLEYTARYM [YML012C-A C-terminal 12 aa]”, the protein stability index is 0.693 ± 0.036 under setting [1] and 0.671 ± 0.0079 (genetic background: wild type).

SANGYKRRRYGN [YHC1 C-terminal 12 aa]: the protein stability index by setting is: under setting [1], 0.716 ± 0.019; (genetic background: wild type) 0.732 ± 0.055.

With SASGKKKINKNN [ELO1 C-terminal 12 aa], the protein stability index by setting is: under setting [1], 0.6991 ± 0.0036; (genetic background: wild type) 0.723 ± 0.042.

SDDNNDENMDLD [SSE2 C-terminal 12 aa]: the protein stability index under setting [1] was 0.694 ± 0.014 and the protein stability index (genetic background: wild type) worked out at 0.663 ± 0.018.

For SDDQILREFLYS [IRE1 C-terminal 12 aa], the protein stability index reads like this: under setting [1], 0.726 ± 0.004; (genetic background: wild type) 0.7 ± 0.025.

SDISDLDDLGFL [RPN3 C-terminal 12 aa]: the protein stability index by setting is: under setting [1], 0.7213 ± 0.0065; (genetic background: wild type) 0.679 ± 0.028.

Consider SDLQKMLNKRKS [CWC24 C-terminal 12 aa], for which the protein stability index was 0.69 ± 0.025 under setting [1] and 0.682 ± 0.0099 (genetic background: wild type).

For SDMYDSKRLLYV [YPL035C C-terminal 12 aa], the protein stability index was determined as 0.652 ± 0.033 under setting [1] and 0.537 ± 0.034 (genetic background: wild type).

As for SELENKFSNQES [FPY1 C-terminal 12 aa], the protein stability index was 0.7048 ± 0.0039 under setting [1] and 0.735 ± 0.053 (genetic background: wild type).

For the sequence SETFATPTPNNR [SPC42 C-terminal 12 aa], the protein stability index worked out at 0.718 ± 0.022 under setting [1] and 0.725 ± 0.01 (genetic background: wild type).

Consider SFALVFKISAEV [YAR053W C-terminal 12 aa], for which the protein stability index reads like this: under setting [1], 0.448 ± 0.046; (genetic background: wild type) 0.489 ± 0.022.

As to SFDDGRVKRQRT [IOC3 C-terminal 12 aa], the protein stability index reads like this: under setting [1], 0.69 ± 0.014; (genetic background: wild type) 0.715 ± 0.075.

Consider SFMSYSCDMPTP [YCL022C C-terminal 12 aa], for which the protein stability index amounted to 0.7225 ± 0.0042 under setting [1] and 0.727 ± 0.071 (genetic background: wild type).

Regarding SFNFDHFDHFDL [YIL054W C-terminal 12 aa], the protein stability index is, setting by setting: under setting [1], 0.733 ± 0.019; (genetic background: wild type) 0.743 ± 0.014.

In turn, SGGWDRSIKLWN [PRP4 C-terminal 12 aa] came in with a protein stability index under setting [1] of 0.711 ± 0.01 and a protein stability index (genetic background: wild type) of 0.681 ± 0.026.

For SGNYFFLDNTGI [RLI1 C-terminal 12 aa], the protein stability index runs as follows: under setting [1], 0.718 ± 0.015; (genetic background: wild type) 0.754 ± 0.056.

Consider SGSGVHVIKRVG [ESS1 C-terminal 12 aa], for which the protein stability index reads like this: under setting [1], 0.701 ± 0.0075; (genetic background: wild type) 0.65 ± 0.019.

In the case of SGWSNFEDFFSR [YKL222C C-terminal 12 aa], the protein stability index runs as follows: under setting [1], 0.744 ± 0.021; (genetic background: wild type) 0.77 ± 0.019.

As for SIKLTFGFGAVL [AHA1 C-terminal 12 aa], the protein stability index by setting is: under setting [1], 0.6981 ± 0.0022; (genetic background: wild type) 0.711 ± 0.0087.

Consider SIQWIWRYSFVY [YIR020C C-terminal 12 aa], for which the protein stability index is, setting by setting: under setting [1], 0.464 ± 0.0072; (genetic background: wild type) 0.44 ± 0.025.

Turning to SKDLGNVLTNLL [ESF2 C-terminal 12 aa], the protein stability index is, setting by setting: under setting [1], 0.6902 ± 0.005; (genetic background: wild type) 0.679 ± 0.035.

Take SKFIEKFQDIVS [MED1 C-terminal 12 aa]: the protein stability index reads like this: under setting [1], 0.701 ± 0.014; (genetic background: wild type) 0.712 ± 0.018.

As to SKKNVLYQKKNN [RTT107 C-terminal 12 aa], the protein stability index came out at 0.69 ± 0.0099 under setting [1] and 0.286 ± 0.014 (genetic background: wild type).

Turning to SKLVKEYSVELR [MSF1 C-terminal 12 aa], the protein stability index by setting is: under setting [1], 0.687 ± 0.019; (genetic background: wild type) 0.663 ± 0.05.

For the sequence SKNTREEKPTEL [MMM1 C-terminal 12 aa], the protein stability index is, setting by setting: under setting [1], 0.698 ± 0.011; (genetic background: wild type) 0.688 ± 0.018.

For the sequence SKPALGTCLYEQ [GAL3 C-terminal 12 aa], the protein stability index is, setting by setting: under setting [1], 0.676 ± 0.0096; (genetic background: wild type) 0.665 ± 0.03.

Consider “SLEKLEMSKYGL [YKL033W-A C-terminal 12 aa]”, for which the protein stability index is 0.6995 ± 0.0021 under setting [1] and 0.6694 ± 0.004 (genetic background: wild type).

Take SLRSFFVKQKVL [ERP6 C-terminal 12 aa]: the protein stability index turned out to be 0.641 ± 0.0083 under setting [1] and 0.185 ± 0.025 (genetic background: wild type).

In the case of SLSARKINMRKV [KRE9 C-terminal 12 aa], the protein stability index runs as follows: under setting [1], 0.705 ± 0.033; (genetic background: wild type) 0.644 ± 0.014.

In the case of SMALRTVSILEN [YGL152C C-terminal 12 aa], the protein stability index is, setting by setting: under setting [1], 0.683 ± 0.011; (genetic background: wild type) 0.649 ± 0.025.

For the sequence SMKYPHTAALVR [YLR111W C-terminal 12 aa], the protein stability index came to 0.578 ± 0.027 under setting [1] and 0.653 ± 0.072 (genetic background: wild type).

SNGFKEWRKSLK [RAI1 C-terminal 12 aa]: the protein stability index is 0.6824 ± 0.0012 under setting [1] and 0.67 ± 0.02 (genetic background: wild type).

Consider SNSSSSQKAAKE [HST2 C-terminal 12 aa], for which the protein stability index turned out to be 0.71 ± 0.033 under setting [1] and 0.651 ± 0.024 (genetic background: wild type).

Take SNWARIFFCHHD [YDL186W C-terminal 12 aa]: the protein stability index under setting [1] was found to be 0.75 ± 0.015 and the protein stability index (genetic background: wild type) was 0.713 ± 0.028.

Sequence SPSPKPQHRRKR [ELO2 C-terminal 12 aa] had a protein stability index under setting [1] of 0.734 ± 0.025 and a protein stability index (genetic background: wild type) of 0.704 ± 0.029.

Take SQLLLFGFGAMV [MDM32 C-terminal 12 aa]: the protein stability index by setting is: under setting [1], 0.6998 ± 0.0031; (genetic background: wild type) 0.705 ± 0.031.

In turn, “SQSCPFFPLMDD [YDR246W-A C-terminal 12 aa]” had a protein stability index under setting [1] of 0.738 ± 0.012 and a protein stability index (genetic background: wild type) of 0.7463 ± 0.0073.

Take SQSKIKAKIRPE [YJL193W C-terminal 12 aa]: the protein stability index is 0.7134 ± 0.0044 under setting [1] and 0.666 ± 0.011 (genetic background: wild type).

Take SRFLKRKSHHDK [SEC1 C-terminal 12 aa]: the protein stability index runs as follows: under setting [1], 0.687 ± 0.0091; (genetic background: wild type) 0.723 ± 0.049.

As for SRIELELKNIGL [ECM29 C-terminal 12 aa], the protein stability index runs as follows: under setting [1], 0.684 ± 0.0096; (genetic background: wild type) 0.762 ± 0.0041.

For the sequence SRILQYKCIFTY [ARP8 C-terminal 12 aa], the protein stability index is 0.517 ± 0.023 under setting [1] and 0.2402 ± 0.0014 (genetic background: wild type).

SRTPPARRQRHR [CWC22 C-terminal 12 aa]: the protein stability index reads like this: under setting [1], 0.7133 ± 0.0015; (genetic background: wild type) 0.671 ± 0.012.

In the case of SSDEEENEKELP [PWP2 C-terminal 12 aa], the protein stability index runs as follows: under setting [1], 0.67854 ± 0.00042; (genetic background: wild type) 0.705 ± 0.039.

As for SSKAIQGNFDDL [SPB4 C-terminal 12 aa], the protein stability index is 0.704 ± 0.018 under setting [1] and 0.714 ± 0.047 (genetic background: wild type).

Take SSLDEVLAKDKD [MIN8 C-terminal 12 aa]: the protein stability index under setting [1] amounted to 0.736 ± 0.018 and the protein stability index (genetic background: wild type) amounted to 0.6795 ± 0.0061.

Take SSSSFISYPPQR [MAD3 C-terminal 12 aa]: the protein stability index was determined as 0.728 ± 0.019 under setting [1] and 0.6977 ± 0.0019 (genetic background: wild type).

For STAVRSIDALKN [HSP31 C-terminal 12 aa], the protein stability index is 0.701 ± 0.042 under setting [1] and 0.687 ± 0.0074 (genetic background: wild type).

Take STERAKELLESN [MRF1 C-terminal 12 aa]: the protein stability index reads like this: under setting [1], 0.666 ± 0.026; (genetic background: wild type) 0.69 ± 0.033.

On to STGSETKIADCR [HSM3 C-terminal 12 aa], for which the protein stability index reads like this: under setting [1], 0.683 ± 0.01; (genetic background: wild type) 0.695 ± 0.021.

In turn, STSGESFTETQF [ICL2 C-terminal 12 aa] registered a protein stability index under setting [1] of 0.6971 ± 0.0022 and a protein stability index (genetic background: wild type) of 0.73 ± 0.054.

On to STTIRAINALYS [HSP32 C-terminal 12 aa], for which the protein stability index under setting [1] worked out at 0.675 ± 0.017 and the protein stability index (genetic background: wild type) came out at 0.65 ± 0.037.

For SVFGEAEEVTNW [MET2 C-terminal 12 aa], the protein stability index by setting is: under setting [1], 0.701 ± 0.017; (genetic background: wild type) 0.702 ± 0.031.

Regarding SVTSKFKKYPYK [BET2 C-terminal 12 aa], the protein stability index by setting is: under setting [1], 0.7131 ± 0.0021; (genetic background: wild type) 0.634 ± 0.026.

As to SWISKEKRVSEE [HXT2 C-terminal 12 aa], the protein stability index reads like this: under setting [1], 0.731 ± 0.032; (genetic background: wild type) 0.809 ± 0.04.

SWLYNFDELLWQ [ALG8 C-terminal 12 aa]: the protein stability index is, setting by setting: under setting [1], 0.761 ± 0.011; (genetic background: wild type) 0.727 ± 0.021.

Sequence SYNDPALADFMP [NRE1 C-terminal 12 aa] had a protein stability index under setting [1] of 0.7154 ± 0.007 and a protein stability index (genetic background: wild type) of 0.744 ± 0.039.

Source of the values: the supplement of paper PMC10724198.
